In patent US9625458B2, “Biosensor” (priority 2002, dated 2017):

Experiment: Fluorescence emission spectra without and with saturating ligand (wavelength shift, ΔIstd, ΔRmax)
Design: key to ΔIstd: intensity change at λstd normalized to average intensity; key to ΔRmax: ratio change of two emission band areas, unbound vs saturated
Details: unbound vs ligand-saturated; for ΔIstd: standard intensity change; for ΔRmax: standard ratiometric change
Protocol: Fluorimetry. All measurements were conducted with an SLM Aminco-Bowman series 2 fluorimeter, with sample stirring at 25° C. Fluorescence emission spectra were acquired with excitation and emission slit widths of 4 and 8 nm, respectively. Photomultiplier tube potential was maintained between 400 and 800 volts. Protein concentrations were in the range of 50 to 1000 nM. Fluorophore-specific excitation was at the following approximate wavelengths: tryptophan, 290 nm; acrylodan, 390 nm; fluorescein, 485 nm; pyrene, 340 nm; NBD and NBDE, 490 nm; JPW4039, 485 nm; JPW4042, 470 nm; JPW4045, 470 nm.
Assessment of fluorescent biosensor function. Fluorescence emission spectra of bPBP-fluorophore conjugates were recorded in the absence and presence of saturating ligand concentrations. Spectral changes were characterized by four parameters: wavelength shift (the difference between the wavelengths of emission maximum in the unbound and ligand-saturated states), direction of intensity change (increase or decrease in intensity at the wavelengths of maximum emission in the two states), standard intensity change (ΔIstd), and standard ratiometric change (ΔR). ΔIstd is defined as the normalized intensity change relative to the average intensity, determined at the wavelength mid-point between the two emission maxima:
[formula] where λstd=(λmax, unbound+λmax, saturated)/2 and I1, I2 are the fluorescence intensities at λstd of each spectrum respectively (FIG. 4A). ΔR is defined in terms of two emission bands, A1 ([λ1, λ2]) and A2 ([λ3, λ4]) (FIG. 4B):
[formula] where ^∘A1, […] the areas in the absence of ligand, and ^∞A1, ^∞A2 the areas in the presence of saturating ligand. A computer program was used to enumerate ΔR for all possible pairs of wavelength bands in the two spectra, to identify the optimal sensing condition, defined as the maximum value of ΔR. Adjustable parameters of the algorithm, and their values used for ΔRmax quantities reported here, are: step size (2 nm), step width (10 nm), minimum integration area limit (fraction of total: 0.1), and maximum integration area limit (fraction of total: 1).

B1: phosphate BP A225C JPW4039 (conjugate, UniProt P0AG82 26-346, looked up, variant A225C)
Phosphate-binding protein PstS: EASLTGAGATFPAPVYAKWADTYQKETGNKVNYQGIGSSGGVKQIIANTVDFGASDAPLSDEKLAQEGLFQFPTVIGGVVLAVNIPGLKSGELVLDGKTLGDIYLGKIKKWDDEAIAKLNPGLKLPSQNIAVVRRADGSGTSFVFTSYLAKVNEEWKNNVGTGSTVKWPIGLGGKGNDGIAAFVQRLPGAIGYVEYAYAKQNNLAYTKLISADGKPVSPTEENFCNAAKGADWSKTFAQDLTNQKGEDAWPITSTTFILIHKDQKKPEQGTEVLKFFDWAYKTGAKQANDLDYASLPDSVVEQVRAAWKTNIKDSSGKPLY
modifications: JPW4039 label
ΔIstd: 0.36 | ΔRmax: 2.86

B2: phosphate BP A225C JPW4042 (conjugate, UniProt P0AG82 26-346, looked up, variant A225C)
Phosphate-binding protein PstS: EASLTGAGATFPAPVYAKWADTYQKETGNKVNYQGIGSSGGVKQIIANTVDFGASDAPLSDEKLAQEGLFQFPTVIGGVVLAVNIPGLKSGELVLDGKTLGDIYLGKIKKWDDEAIAKLNPGLKLPSQNIAVVRRADGSGTSFVFTSYLAKVNEEWKNNVGTGSTVKWPIGLGGKGNDGIAAFVQRLPGAIGYVEYAYAKQNNLAYTKLISADGKPVSPTEENFCNAAKGADWSKTFAQDLTNQKGEDAWPITSTTFILIHKDQKKPEQGTEVLKFFDWAYKTGAKQANDLDYASLPDSVVEQVRAAWKTNIKDSSGKPLY
modifications: JPW4042 dye conjugate
ΔIstd: 0.30 | ΔRmax: 1.32

B3: phosphate BP A225C JPW4045 (conjugate, UniProt P0AG82 26-346, looked up, variant A225C)
Phosphate-binding protein PstS: EASLTGAGATFPAPVYAKWADTYQKETGNKVNYQGIGSSGGVKQIIANTVDFGASDAPLSDEKLAQEGLFQFPTVIGGVVLAVNIPGLKSGELVLDGKTLGDIYLGKIKKWDDEAIAKLNPGLKLPSQNIAVVRRADGSGTSFVFTSYLAKVNEEWKNNVGTGSTVKWPIGLGGKGNDGIAAFVQRLPGAIGYVEYAYAKQNNLAYTKLISADGKPVSPTEENFCNAAKGADWSKTFAQDLTNQKGEDAWPITSTTFILIHKDQKKPEQGTEVLKFFDWAYKTGAKQANDLDYASLPDSVVEQVRAAWKTNIKDSSGKPLY
modifications: JPW4045 label
ΔIstd: 0.02 | ΔRmax: 0.82

B4: phosphate BP A225C Acrylodan (conjugate, UniProt P0AG82 26-346, looked up, variant A225C)
Phosphate-binding protein PstS: EASLTGAGATFPAPVYAKWADTYQKETGNKVNYQGIGSSGGVKQIIANTVDFGASDAPLSDEKLAQEGLFQFPTVIGGVVLAVNIPGLKSGELVLDGKTLGDIYLGKIKKWDDEAIAKLNPGLKLPSQNIAVVRRADGSGTSFVFTSYLAKVNEEWKNNVGTGSTVKWPIGLGGKGNDGIAAFVQRLPGAIGYVEYAYAKQNNLAYTKLISADGKPVSPTEENFCNAAKGADWSKTFAQDLTNQKGEDAWPITSTTFILIHKDQKKPEQGTEVLKFFDWAYKTGAKQANDLDYASLPDSVVEQVRAAWKTNIKDSSGKPLY
modifications: acrylodan conjugate
ΔIstd: 0.08 | ΔRmax: 1.95

B5: phosphate BP A225C Fluorescein (conjugate, UniProt P0AG82 26-346, looked up, variant A225C)
Phosphate-binding protein PstS: EASLTGAGATFPAPVYAKWADTYQKETGNKVNYQGIGSSGGVKQIIANTVDFGASDAPLSDEKLAQEGLFQFPTVIGGVVLAVNIPGLKSGELVLDGKTLGDIYLGKIKKWDDEAIAKLNPGLKLPSQNIAVVRRADGSGTSFVFTSYLAKVNEEWKNNVGTGSTVKWPIGLGGKGNDGIAAFVQRLPGAIGYVEYAYAKQNNLAYTKLISADGKPVSPTEENFCNAAKGADWSKTFAQDLTNQKGEDAWPITSTTFILIHKDQKKPEQGTEVLKFFDWAYKTGAKQANDLDYASLPDSVVEQVRAAWKTNIKDSSGKPLY
modifications: fluorescein label
ΔIstd: 0.01 | ΔRmax: 0.97

B6: phosphate BP A225C NBD (conjugate, UniProt P0AG82 26-346, looked up, variant A225C)
Phosphate-binding protein PstS: EASLTGAGATFPAPVYAKWADTYQKETGNKVNYQGIGSSGGVKQIIANTVDFGASDAPLSDEKLAQEGLFQFPTVIGGVVLAVNIPGLKSGELVLDGKTLGDIYLGKIKKWDDEAIAKLNPGLKLPSQNIAVVRRADGSGTSFVFTSYLAKVNEEWKNNVGTGSTVKWPIGLGGKGNDGIAAFVQRLPGAIGYVEYAYAKQNNLAYTKLISADGKPVSPTEENFCNAAKGADWSKTFAQDLTNQKGEDAWPITSTTFILIHKDQKKPEQGTEVLKFFDWAYKTGAKQANDLDYASLPDSVVEQVRAAWKTNIKDSSGKPLY
modifications: NBD conjugate
ΔIstd: 0.81 | ΔRmax: 1.21

B7: phosphate BP N223C Fluorescein (conjugate, UniProt P0AG82 26-346, looked up, variant N223C)
Phosphate-binding protein PstS: EASLTGAGATFPAPVYAKWADTYQKETGNKVNYQGIGSSGGVKQIIANTVDFGASDAPLSDEKLAQEGLFQFPTVIGGVVLAVNIPGLKSGELVLDGKTLGDIYLGKIKKWDDEAIAKLNPGLKLPSQNIAVVRRADGSGTSFVFTSYLAKVNEEWKNNVGTGSTVKWPIGLGGKGNDGIAAFVQRLPGAIGYVEYAYAKQNNLAYTKLISADGKPVSPTEECFANAAKGADWSKTFAQDLTNQKGEDAWPITSTTFILIHKDQKKPEQGTEVLKFFDWAYKTGAKQANDLDYASLPDSVVEQVRAAWKTNIKDSSGKPLY
modifications: fluorescein conjugate
ΔIstd: 0.06 | ΔRmax: 0.01

B8: phosphate BP N226C JPW4039 (conjugate, UniProt P0AG82 26-346, looked up, variant N226C)
Phosphate-binding protein PstS: EASLTGAGATFPAPVYAKWADTYQKETGNKVNYQGIGSSGGVKQIIANTVDFGASDAPLSDEKLAQEGLFQFPTVIGGVVLAVNIPGLKSGELVLDGKTLGDIYLGKIKKWDDEAIAKLNPGLKLPSQNIAVVRRADGSGTSFVFTSYLAKVNEEWKNNVGTGSTVKWPIGLGGKGNDGIAAFVQRLPGAIGYVEYAYAKQNNLAYTKLISADGKPVSPTEENFACAAKGADWSKTFAQDLTNQKGEDAWPITSTTFILIHKDQKKPEQGTEVLKFFDWAYKTGAKQANDLDYASLPDSVVEQVRAAWKTNIKDSSGKPLY
modifications: JPW4039 dye conjugate
ΔIstd: 0.26 | ΔRmax: 2.94

B9: phosphate BP N226C JPW4042 (conjugate, UniProt P0AG82 26-346, looked up, variant N226C)
Phosphate-binding protein PstS: EASLTGAGATFPAPVYAKWADTYQKETGNKVNYQGIGSSGGVKQIIANTVDFGASDAPLSDEKLAQEGLFQFPTVIGGVVLAVNIPGLKSGELVLDGKTLGDIYLGKIKKWDDEAIAKLNPGLKLPSQNIAVVRRADGSGTSFVFTSYLAKVNEEWKNNVGTGSTVKWPIGLGGKGNDGIAAFVQRLPGAIGYVEYAYAKQNNLAYTKLISADGKPVSPTEENFACAAKGADWSKTFAQDLTNQKGEDAWPITSTTFILIHKDQKKPEQGTEVLKFFDWAYKTGAKQANDLDYASLPDSVVEQVRAAWKTNIKDSSGKPLY
modifications: JPW4042 dye conjugate
ΔIstd: 0.29 | ΔRmax: 2.05

B10: phosphate BP N226C JPW4045 (conjugate, UniProt P0AG82 26-346, looked up, variant N226C)
Phosphate-binding protein PstS: EASLTGAGATFPAPVYAKWADTYQKETGNKVNYQGIGSSGGVKQIIANTVDFGASDAPLSDEKLAQEGLFQFPTVIGGVVLAVNIPGLKSGELVLDGKTLGDIYLGKIKKWDDEAIAKLNPGLKLPSQNIAVVRRADGSGTSFVFTSYLAKVNEEWKNNVGTGSTVKWPIGLGGKGNDGIAAFVQRLPGAIGYVEYAYAKQNNLAYTKLISADGKPVSPTEENFACAAKGADWSKTFAQDLTNQKGEDAWPITSTTFILIHKDQKKPEQGTEVLKFFDWAYKTGAKQANDLDYASLPDSVVEQVRAAWKTNIKDSSGKPLY
modifications: JPW4045 dye conjugate
ΔIstd: 0.53 | ΔRmax: 3.83
